# Data published in paper PMC3861103.
# B1: CYP11A1 (dsDNA)
# DNA 1: ACATTTTATCAGCTTCTGGTATGGCCTTGAGCTGGTAGTTATAATCTTGGC
# DNA 2: GCCAAGATTATAACTACCAGCTCAAGGCCATACCAGAAGCTGATAAAATGT
# B2: 2xNR5RE WT (dsDNA)
# DNA 1: CTAAAGGGAGCCAAGGTCATAGCGGCCAGTCAAGGCCAAGGGCGACAG
# DNA 2: CTGTCGCCCTTGGCCTTGACTGGCCGCTATGACCTTGGCTCCCTTTAG
# B3: MIS WT (dsDNA)
# DNA 1: GATCCGCCAGGCACTGTCCCCCAAGGTCACCTTTGGTGTTGATAAGATCCC
# DNA 2: TCGAGGGATCTTATCAACACCAAAGGTGACCTTGGGGGACAGTGCCTGGCG
# Key:
# [1] = molecular target: T1, 6xHis-MBP-NHR-25 DBD (unmodified) (Caenorhabditis elegans, UniProt Q19345 1-173); assay: EMSA; 500 nM protein, 1 uM DNA; 50 mM Tris pH 8.0, 150 mM NaCl, 10 mM MgCl2, 10 mM DTT, 10 mM ATP, 400 ug/ml BSA, 1 uM dsDNA, 500 nM protein (200-700 nM titration), room temperature 30 min; 4-20% TBE gel, SYBR Gold; details: protein: recombinant, tags: N-terminal 6xHis-MBP
# T1 sequence: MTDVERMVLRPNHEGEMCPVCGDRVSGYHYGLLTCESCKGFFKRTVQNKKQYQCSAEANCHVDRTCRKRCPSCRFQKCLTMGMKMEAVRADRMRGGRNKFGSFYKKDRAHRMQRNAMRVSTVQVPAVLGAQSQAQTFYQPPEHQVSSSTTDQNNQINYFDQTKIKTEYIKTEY
# [2] = molecular target: T1, 6xHis-MBP-NHR-25 DBD (unmodified); assay: EMSA; 1 uM DNA; 50 mM Tris pH 8.0, 150 mM NaCl, 10 mM MgCl2, 10 mM DTT, 10 mM ATP, 400 ug/ml BSA, 1 uM dsDNA, 500 nM protein (200-700 nM titration), room temperature 30 min; 4-20% TBE gel, SYBR Gold; details: protein: recombinant; tags: N-terminal 6xHis-MBP; blunt
binder,measurement,setting,value
B1,binding result,[1]; blunt,binds
B2,binding result,[2],binds
B3,binding result,[1]; 5' overhangs 4 nt on both strands,binds
